The record followed here is the nanobody polyreactivity screen of Harvey et al. (2022).

The data set in a line: yeast display, Sf9 membrane polyspecificity reagent, FACS + sequencing; frameworks hold sequencing errors. In short, it runs like this:
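Sorting gates, low and high (top ~1%), were placed on anti-HA fluorescence to track expression and on streptavidin fluorescence to track reagent binding. A clone's polyreactivity label is taken from the gate it came out of. The reagent was 10% biotinylated, detergent-solubilized Sf9 membrane, applied for 1 hour at 4 °C to galactose-induced yeast display cells.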
For the sequence “QVQLVESGGGLVQAGGSLRLSCAASGFTISRYTMGWYRQAPGKERELVASITRRAGSTYYADSVKGRYTISRDNAQTTVYLQMYSLKPEDTAVYYCAAYGWTFSKVDLEMDYWGQGTQVTVSS”, the “polyreactivity (PSR sort gate)” value is “high polyreactivity”.
Consider “QVQLVESGGGLVQAGGSLRLSCAASGFTIVPYAMGWYRQAPGNERELVAAISRRGSRTYYADSVKGRFTISRDNAKNTVYLQMNSLKAEDTAVYYCAAKLSAVKAAYDYWGQGTQVTVSS”, for which the “polyreactivity (PSR sort gate)” value was “high polyreactivity”.
Under “QVQLVESGGGLVQAGGSLRLSCAASGFTIVYYAMGWYRQAPGKERELVAVISSRGGSTYYADSVKGRFTISRDNAKNTVYLQMNSLKPEDTAVYYCAARGRGQPFVRYDYWGQGTQVTVSS” stands “high polyreactivity”; under “QVQLVESGGGLVQAGGSLRLSCAASGFTIWDYAMGWYRQAPGKERELVAAISRRGGTTYYADSVKGRFTISRDNAKNTVYLQMNSLKPEETAVYYCATYSYTWLNYYWGQGTQVTVSS”, “high polyreactivity”; under “QVQLVESGGGLVQAGGSLRLSCAASGFTIWPYAMGWYRQPPGKERELVAGITRNGGSTYYADSVKGRFTISRDNAKNTVYLQMNSLKPEDTAVYYCNTKYAVEFDYWGQGTQVTVSS”, “low polyreactivity”.
For “QVQLVESGGGLVQAGGSLRLSCAASGFTIWQNAMGWYRQAPGKERELVAGIRLSGGSTYADSVKGRFTISRDNAKNTVYLQMNSLKAEDTAVYYCNAAYKNSPYDYWGQGTQVTVSS” the value was “high polyreactivity”; for “QVQLVESGGGLVQAGGSLRLSCAASGFTIYRNAMGWYRQAPGKERELVARIRRTGGRTYYADSVKGRFTISRDNAKNTVNLQMNSLKPEDTAVYYCAAYPGPGARYYYWGQGTQVTVSS”, “high polyreactivity”; for “QVQLVESGGGLVQAGGSLRLSCAASGFTLADNTMGWYRQAPGKERELVATISGSGSTYYADSVKGRFTISRDNAKNTVYLQMNSLKPEDTAVYYCAAVDTGTEKDLLRLGNGGYDYWGQGTQVTVSS”, “low polyreactivity”.
Under “QVQLVESGGGLVQAGGSLRLSCAASGFTLAGYDMGWYRQAPGKEREFVATISTYADSVKGRFTISRDNAKNTVYLQMNSQKPEDSAVYYCAAGRYLWHFTFDYWGQGTQVTVSS” stands “low polyreactivity”; under “QVQLVESGGGLVQAGGSLRLSCAASGFTLATYAMGWYRQAPGKERELVAAITRSGGSTYYADSVKGRFTISRDNAKNTVYLQMNSLKPEDTAVYYCNAREVRYEYNYWGQGTQVTVSS”, “low polyreactivity”; under “QVQLVESGGGLVQAGGSLRLSCAASGFTLAYYAMGWSRQAPGKERELVAAISWSGDTTYYADSVKGRFTISRDNAKNTVYLQMNSLKPEDTAVYYCAADYYLWGQGTQVTVSS”, “high polyreactivity”.
Consider “QVQLVESGGGLVQAGGSLRLSCAASGFTLDKYAMGWYRQAPGKERELVAAITWSGGSTYYADSVKGRFTISRDNAKNTVYLQMNSLKPEDTAVYYCNVLRYRLWGQGTQVTVSS”, for which the “polyreactivity (PSR sort gate)” value is “high polyreactivity”.
On to “QVQLVESGGGLVQAGGSLRLSCAASGFTLDPYALGWYRQAPGKERELVAAIRLSGCSTYYADSVKGRFTISRDNAKNTVYLQMNSLKPEDTAVYYCAADGISHWLYRYDYWGQGTQVTVSS”, for which the “polyreactivity (PSR sort gate)” value is given as “low polyreactivity”.
For “QVQLVESGGGLVQAGGSLRLSCAASGFTLDWYAMGWYRQAPGKERELVAAIWSAGTTYYADSVKGRFTISRDNAKNTVYLQMNSLKPEDTAVYYCATVSDYDFGLYDYWGQGSQVTVSS” the value was “low polyreactivity”.
Under “QVQLVESGGGLVQAGGSLRLSCAASGFTLDWYVMGWYRQATGKERELVAAISSSGGRTYYADSVKGRFTISRDNAKNTVYLQMNSLKPEDTAVYYCAARNQYGGYPYGYDYWGQGTQVTVSS” stands “high polyreactivity”; under “QVQLVESGGGLVQAGGSLRLSCAASGFTLDYYAMGWYRKAPGKERELVAAISFSGGSTYYADSVKGRFTISRDNAKNTVYLQMNSLKPEDTAVYYCAADPQIVWYDYWGQGTQVTVSS”, “low polyreactivity”.
As for “QVQLVESGGGLVQAGGSLRLSCAASGFTLEYYAMGWYRQAPGKERELVAAITNGASTNYADSVKGRFTISRDNAKNTVYLQMNSLKPEDTAVYYDYWGQGTQVTVSS”, the “polyreactivity (PSR sort gate)” value is listed as “low polyreactivity”.
Under “QVQLVESGGGLVQAGGSLRLSCAASGFTLFFYAMGWYRQAPGKEREFVASIRTSGGSTYYADSVKGRFTISRDNAKNTVYLQMNSLKPEDTAVYYCAARPLYGYGYWGQGTQVTVSS” stands “high polyreactivity”; under “QVQLVESGGGLVQAGGSLRLSCAASGFTLGGYAMGWYRQAPGKEREFVAAISGRGGRTYYADSVKGRFTISRDNAKNTVYLQMNSLKPEDTAVYYCAAPTNHWTRLSGDYWGQGTQVTVSS”, “high polyreactivity”; under “QVQLVESGGGLVQAGGSLRLSCAASGFTLGNYAMGWYRQAPGKERELVAVITSGGRTYYADSVKGRFTISRDNAKNTVYLQMNSLKPEDTAVYYCNTKVYYYYRAVVDFDYWGQGTQVTVSS”, “low polyreactivity”.
Under “QVQLVESGGGLVQAGGSLRLSCAASGFTLGRNAMGWYRQAPGKERELVASISGRGGSSYYADSVKGRFTISRDNAKNTVYLQMNSLKPEDTAVYYCAARGVSGKYYYWGQGTQVTVSS” stands “high polyreactivity”; under “QVQLVESGGGLVQAGGSLRLSCAASGFTLGTYAMGWYRQAPGKERELVAAISRGGGITYYADSVKGRFTISRDNAKNTVYLQMISLKPEDTAVYDCAADWRYWRWAFDYWGQGTQVTVSS”, “high polyreactivity”.
On to “QVQLVESGGGLVQAGGSLRLSCAASGFTLGWYAMGWYRQAPGKERELVAAISRSGGSTYYADSVKGRFTISRDNAKNTVYLQMNCLKPEDTGVYYCAAEVNYAGRAVWSYYWGQGTQVTVSW”, for which the “polyreactivity (PSR sort gate)” value is recorded as “high polyreactivity”.
Under “QVQLVESGGGLVQAGGSLRLSCAASGFTLIHYAMGWYRQAPGKERELVAGITTSGGSTYYADSVKGRFTISRDNAKNTGYLQMNSLKPEDTAVYYCNAEYRRRPKLGDEDEYWGQGTQVTVSS” stands “high polyreactivity”; under “QVQLVESGGGLVQAGGSLRLSCAASGFTLKRYAMGWYRQAPGKERELVAAISTGGSTYYADSVKGRFTISRDNAKNTVYLQMNSLKPEDTAVYYCAAKRYNRLRSYRYSDREDYWGQGTQVTVSS”, “high polyreactivity”; under “QVQLVESGGGLVQAGGSLRLSCAASGFTLKYNTMGWYRPAPGKERELVAAISRIGGRTYYADSVKGRFTISRDYAKNTVYLHKNSLKPEDTAVYYCAAVYRVCWRTYGYWGQGTQVTVSS”, “high polyreactivity”.
For “QVQLVESGGGLVQAGGSLRLSCAASGFTLQGYAMGWYRQAPGKERELVAAIRWIGTSTYYADSVKGRFTISRDIAKNTVYLQMNSLKPEDTAVYYCAAYRYNTPFGYWGQGTQVTVSS” the value was “high polyreactivity”.
Under “QVQLVESGGGLVQAGGSLRLSCAASGFTLQVYDMGWYRQAPGKERELVADISGSGDSTNYADSVKGRFTISRDNAKNTVYLQMNSLKPEDTAVYYCAAEVRGGYYGYDYWGQGTQVTVSS” stands “low polyreactivity”; under “QVQLVESGGGLVQAGGSLRLSCAASGFTLRLYTMGWYIQAPGKERELVAAISRSGGSTYYADSVKGRFTISRDNAKNTVYLQMNSLKPEDPAVYYCNAKNGRPGFNMYHWGQGTQVTVSS”, “high polyreactivity”; under “QVQLVESGGGLVQAGGSLRLSCAASGFTLRRNAIGWYRQAPGKERELVAAISSSGSTYYADSVKGRFTISRDNAKNTVYLQMYSLKPEDTAVYYCAAQPGRRAGRSGFDYWGQGTQVNVSS”, “high polyreactivity”.
